What is called IC50 is the concentration at which inhibition is half-maximal. Low values mean greater potency in that assay, high ones weaker potency in that assay.

Values joined by “and” are separate entries in the source; they are usually repeats but may differ in a detail not shown here. Identical values can stand only once. Bounds are passed on as bounds.

Experiment in all cases: cell-based or functional assay
The target in assay [1] is Human rt-PA (Activase), obtained from Genentech Inc. (human) (UniProt P00750).
Assay [2] addresses Urokinase (Abbokinase), manufactured by Abbott Laboratories (UniProt P00749).
Assay [3] has as its target Purified human plasmin, obtained from Enzyme Research Laboratories, Inc. (human) (UniProt P00747).

Sequence of Purified human plasmin, obtained from Enzyme Research Laboratories, Inc. (human) (P00747 97-810 limits assumed): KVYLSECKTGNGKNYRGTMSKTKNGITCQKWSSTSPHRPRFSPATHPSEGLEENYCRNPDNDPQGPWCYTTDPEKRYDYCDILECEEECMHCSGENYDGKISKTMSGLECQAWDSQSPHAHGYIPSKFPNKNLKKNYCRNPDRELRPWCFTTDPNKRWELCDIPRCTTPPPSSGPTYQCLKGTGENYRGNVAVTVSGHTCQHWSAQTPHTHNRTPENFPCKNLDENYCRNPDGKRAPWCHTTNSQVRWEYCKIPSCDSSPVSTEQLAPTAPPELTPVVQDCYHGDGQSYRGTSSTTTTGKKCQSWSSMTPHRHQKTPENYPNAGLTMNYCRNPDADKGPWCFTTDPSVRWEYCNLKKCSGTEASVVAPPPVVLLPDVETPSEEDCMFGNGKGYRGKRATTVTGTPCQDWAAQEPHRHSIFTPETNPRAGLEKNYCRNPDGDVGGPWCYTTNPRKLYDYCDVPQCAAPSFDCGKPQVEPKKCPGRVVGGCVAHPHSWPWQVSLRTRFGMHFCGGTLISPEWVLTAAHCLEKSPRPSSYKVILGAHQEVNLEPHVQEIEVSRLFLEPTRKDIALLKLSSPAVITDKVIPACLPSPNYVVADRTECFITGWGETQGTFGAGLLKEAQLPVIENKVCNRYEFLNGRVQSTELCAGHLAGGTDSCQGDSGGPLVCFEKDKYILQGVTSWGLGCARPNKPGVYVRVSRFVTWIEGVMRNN
Sequence of Human rt-PA (Activase), obtained from Genentech Inc. (human) (P00750 36-562 limits assumed): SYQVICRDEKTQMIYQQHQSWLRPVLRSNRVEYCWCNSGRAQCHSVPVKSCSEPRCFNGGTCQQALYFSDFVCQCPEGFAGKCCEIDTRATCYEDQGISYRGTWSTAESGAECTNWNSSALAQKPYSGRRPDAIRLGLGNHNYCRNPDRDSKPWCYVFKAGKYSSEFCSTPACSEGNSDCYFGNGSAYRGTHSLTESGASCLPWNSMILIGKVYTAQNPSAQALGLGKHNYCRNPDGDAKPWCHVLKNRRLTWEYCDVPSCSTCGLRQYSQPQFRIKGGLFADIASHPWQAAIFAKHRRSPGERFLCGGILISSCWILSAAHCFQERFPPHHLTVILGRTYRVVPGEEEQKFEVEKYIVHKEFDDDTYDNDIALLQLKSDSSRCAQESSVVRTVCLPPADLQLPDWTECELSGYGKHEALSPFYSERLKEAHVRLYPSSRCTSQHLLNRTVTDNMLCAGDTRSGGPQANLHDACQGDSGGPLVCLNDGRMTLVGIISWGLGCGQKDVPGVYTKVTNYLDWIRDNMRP

Take “benzyloxycarbonyl-D-seryl-L-allylglycyl-argininal (peptide)”: the IC50 was above 2500 nM in assay [1]; > 100 nM and < 250 nM in assay [2]; > 250 nM and < 2500 nM in assay [3].

Turning to “benzyloxycarbonyl-D-seryl-L-3,4-dehydroprolyl-argininal (peptide)”, the IC50 was above 2500 nM in assay [1]; below 100 nM in assay [2]; > 100 nM and < 250 nM in assay [3].

As to “benzenesulfonyl-D-seryl-azetidyl-argininal, trifluoroacetate salt (peptide)”, the IC50 in assay [2] was below 100 nM; in assay [3], > 250 nM and < 2500 nM.

As to “benzyloxycarbonyl-D-seryl-L-azetidine-2-carbonyl-argininal (peptide)”, the IC50 in assay [1] was above 2500 nM; in assay [2] it was below 100 nM; in assay [3], > 250 nM and < 2500 nM.

On to “benzyloxycarbonyl-D-seryl-L-β-cyanoalanine-argininal (peptide)”, for which the IC50 in assay [1] was above 2500 nM; in assay [2], below 100 nM; in assay [3], > 250 nM and < 2500 nM.

In the case of “benzyloxycarbonyl-D-seryl-2-aminobutanoyl-argininal (peptide)”, the IC50 was above 2500 nM in assay [1] and below 100 nM in assay [2].

For “benzyloxycarbonyl-D-seryl-pipecolyl-argininal (peptide)”, the IC50 was above 2500 nM in assay [1]; > 100 nM and < 250 nM in assay [2].

For “benzyloxycarbonyl-D-seryl-L-propargylglycyl-argininal (peptide)”, the IC50 in assay [1] is above 2500 nM; in assay [2] it was below 100 nM; in assay [3], > 250 nM and < 2500 nM.

Regarding “benzyloxycarbonyl-D-seryl-2-norvalyl-argininal (peptide)”, the IC50 in assay [1] is above 2500 nM; in assay [2] it was > 100 nM and < 250 nM.

For the origin of these results see patent US6432922.
